From patent US20200062847A1 (XIANGTAN TENGHUA BIOSCIENCE, published 2020)
Where a chain is given by its changes, count along the chain named.

T1: mouse PD-1 (mouse, UniProt Q02242 25-167, limits assumed)
T1 sequence (looked up): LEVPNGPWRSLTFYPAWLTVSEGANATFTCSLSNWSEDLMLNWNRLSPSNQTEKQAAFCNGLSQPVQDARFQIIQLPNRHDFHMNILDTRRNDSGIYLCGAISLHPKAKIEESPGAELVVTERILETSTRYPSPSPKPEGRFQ

B1: Abs-h-924 (antibody, V domains shown)
VH: QVQLVESGGGVVQPGRSLRLSCAASGFTFSSYGMHWVRQAPGKGLEWVAVISYDGSNKYYADSVKGRFTISRDNSKNTLYLQMNSLRAEDTAVYYCARYYYYYGMDVWGQGTTVTVSS
VL: EIVLTQSPATLSLSPGERATISCRGSQSLSSYLAWYQQRPGQAPRLLIYDVSNRATGIPARFSGSGSGTDFTLTISGLEPEDFAVYYCQQRTNWPRAFGQGTKVEIKR
notes: also called humanized anti-human-PD-1 recombinant antibody Abs-h-924
B2: Abs-h-925 (antibody, V domains shown)
VH: B1 VH with E6D, G26A, G33A, G104Y, Q110K
VL: B1 VL with I21L, G25A, L29V, R39K, D50E, V51A, G77S, R96P
notes: also called humanized anti-human-PD-1 recombinant antibody Abs-h-925
B3: Abs-h-923 (antibody, V domains shown)
VH: QVQLVQSGAEVKKPGASVKVSCKASGYTFTSYAMHWVRQAPGQRLEWMGWSNAGNGNTKYSQEFQGRVTITRDTSASTAYMELSSLRSEDMAVYYCARYWYFDLWGRGTLVTVSS
VL: EIALTQSPATLSLSPGERATLSCRASQSGSSFVAWYQQKPGQAPRLLIYANNKRETGIPARFSGSGSGTDFTLTISSLEPEDFAVYYCGTYTDSPPTFGQGTKVEIKR
B4: Abs-r-924 (antibody, V domains shown)
VH: QESVKESGGGLVKPGDTLTLTCKVSGFSISSYGMHWVRQAPGKGLEWIGVISYDGSNKYYADSVKGRFTISRNTNQNTVTLKMTSLTADDTATYFCARYYYYYGMDVWGQGTLVTVSS
VL: EIVLTQTPSSVSAAVGSTVTINCRGSQSLSSYLAWYQQKPGQRPKLLIYDVSNRATGVPRRFKGSGSGTQFTLTISGVQADDAATYYCQQRTNWPRAFGGGTKVDVKG
notes: Rabbit recombinant antibody expressed in HEK293; also called rabbit anti-human-PD-1 recombinant antibody Abs-r-924

Experiments:
[1] = target: T2, recombinant human PD-1 (human, UniProt Q15116 25-167, limits assumed); assay: competition ELISA on coated human PD-1, antibody titrated against 50 ng/ml Nivolumab as competitor; EC50 estimated at half-maximal absorbance
T2 construct: also called human PD-1 protein; soluble PD-1
T2 sequence (Q15116 25-167 limits assumed): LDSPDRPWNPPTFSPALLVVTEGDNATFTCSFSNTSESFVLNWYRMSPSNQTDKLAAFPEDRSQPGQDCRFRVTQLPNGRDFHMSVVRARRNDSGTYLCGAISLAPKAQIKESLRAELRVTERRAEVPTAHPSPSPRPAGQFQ
Protocol: The assay was conducted essentially as follows. […] HRP-conjugated anti-human antibody was added and incubated.

[2] = target: T2, recombinant human PD-1; assay: SPR (Biacore), antibody captured via anti-human IgG
Protocol: This technology allows the label-free determination of the microscopic rate constants for binding (kₐ) and dissociation (kd) of a ligand to a receptor. […] The kinetic traces were evaluated with the Biacore™ T2000. The full set of these traces with increasing concentrations is taken together and is called a run. Two zero concentration samples (blank runs) were included in each analyte concentration series to allow double-referencing during data evaluation. The kinetic rate constants for association (kₐ) and dissociation (kd) as well as the dissociation equilibrium constant (KD) were calculated.

[3] = target: T1, mouse PD-1; assay: ELISA

| Binder | EC50 [1] | koff [2] | kon [2] | binding result [3] |
| --- | --- | --- | --- | --- |
| B1 | 0.14 nM | 3.9e-06 s⁻¹ | 1.22e+06 M⁻¹ s⁻¹ |  |
| B2 | 0.15 nM | 3.2e-06 s⁻¹ | 1.19e+06 M⁻¹ s⁻¹ |  |
| B3 | 0.41 nM | 7.9e-06 s⁻¹ | 1.15e+06 M⁻¹ s⁻¹ |  |
| B4 |  |  |  | no binding |
